Paper PMC6599655

Assays:
[1] = Western blot of 293T cell lysates; settings: glycan lost; control: wild type
[2] = Western blot of concentrated culture supernatant vs lysate; settings: glycan lost; control: wild type

B1: Procollagen C-proteinase enhancer protein (PCOLCE): N29Q (protein)
parent chain: MLPAATASLLGPLLTACALLPFAQGQTPNYTRPVFLCGGDVKGESGYVASEGFPNLYPPNKECIWTITVPEGQTVSLSFRVFDLELHPACRYDALEVFAGSGTSGQRLGRFCGTFRPAPLVAPGNQVTLRMTTDEGTGGRGFLLWYSGRATSGTEHQFCGGRLEKAQGTLTTPNWPESDYPPGISCSWHIIAPPDQVIALTFEKFDLEPDTYCRYDSVSVFNGAVSDDSRRLGKFCGDAVPGSISSEGNELLVQFVSDLSVTADGFSASYKTLPRGTAKEGQGPGPKRGTEPKVKLPPKSQPPEKTEESPSAPDAPTCPKQCRRTGTLQSNFCASSLVVTATVKSMVREPGEGLAVTVSLIGAYKTGGLDLPSPPTGASLKFYVPCKQCPPMKKGVSYLLMGQVEENRGPVLPPESFVVLHRPNQDQILTNLSKRKCPSQPVRAAASQD
expression_or_secretion [1]: decreases
expression_or_secretion [2]: decreases
